We go through three molecules from patent publication US8084213, “Selection” (Domantis Limited).

For data set [1], the target named is T1, Vk(E5)-scArc-HA (Phage P22 / human Vk). Briefly: recovery increases with operator number; complex stabilised by 3.4 nM anti-HA mAb 3F10. To be noted: tags: N-terminal Vk(E5) dAb fusion, C-terminal HA; chain copies: 2 scArc per operator (stated).
Data set [2] has as its target T2, scArc-Vk(E5)-HA (Phage P22 / human Vk). Briefly: stable linkage even without anti-HA mAb. To be noted: tags: C-terminal Vk(E5) dAb fusion, chain copies: 2 scArc per operator (stated).
In data set [3] the target is scFv(31IJ1)-(KEAAA)6-scArc-HA (Phage P22 / human scFv?). As to the kind of experiment: recovery improves with operator number. Particulars: tags: N-terminal scFv fusion, C-terminal HA; chain copies: 2 scArc per operator (inferred). The method, then: In the solution expression experiments 3 µl of 1.7 nM PCR-amplified pIE7aA, pIE7a2A, pIE7a3A, pIE7a4A, pIE7aA-scFv(31IJ1), pIE7a2A-scFv(31 Ul), pIE7a3A-scFv (31IJ1) or pIE7a4A-scFv(31IJ1) template in 0.2 mg/ml tRNA is added to 25 µl EcoPro T7 in vitro translation mix (Novagen), supplemented with 0.75 µl of 100 mM oxidized glutathione (Sigma) and 0.25 µl […] 3F10 αHA mAb (Roche). Each reactions is split into three 9 µl aliquots. Two of the three in vitro translation aliquots of pIE7aA-scFv(31IJ1), pIE7a2A-scFv(31IJ1), pIE7a3A-scFv(31IJ1) or pIE-7a4A-scFv(31IJ1) are immediately combined with the aliquots of pIE7aA, pIE7a2A, pIE7a3A or pIE7a4A expression reactions respectively, one before and the other after the four-hour incubation at 25° C.
During the translation reaction the streptavidin-coated PCR tubes, cut from Strep Thermofast 96-well plates (Abgene), are first incubated at room temperature for three hours with 50 µl of at least 40 nM biotinylated protein A (Sigma), protein L (Pierce) fluorescein (Molecular Probes) of BSA (Sigma) in PBS. The coating buffer is thereafter removed and any remaining free biotin-binding sites are blocked with a 15 min pulse of 50 µg/ml biotinylated BSA in PBS. The pre-coated wells are thereafter three times washed with PBS and then filled with 100 µl of binding buffer C+ (100 mM KCl, 20 mM Tris, 5 mM MgCl2, 0.05% Tween 20, 0.05 mM EDTA, 1% BSA).
Upon completion of the translation reaction the products are diluted in Buffer C+ and applied to the pre-coated and blocked PCR tubes, allowed to bind for 30 min at room temperature and washed 4 times with 150 µl of Buffer C+. The retained genetic elements are amplified with PCR using a nested set of primers AS79/AS80 and a 30-cycle PCR protocol 30X60C2M. In 30X60C2M protocol 50 µl PCR reactions contain 200 µM each of dATP dTTP dGTP dCTP (Amersham), 300 nM forward and reverse primers AS13+ AS19 and 1 U of SuperTaq DNA polymerase (HT Biotechnology) in 1× polymerase Buffer (HT Biotechnology). […]

Data set [4] concerns the target T1, Vk(E5)-scArc-HA. Briefly: recovery reaches plateau at 3-4 operators. To be noted: tags: N-terminal Vk(E5) dAb fusion, C-terminal HA; chain copies: 2 scArc per operator (stated). The method, then: (§1) Tubes from Strep Thermofast 96-well plates are coated by applying 2 µl of 0.05 mg/ml biotinylated rat anti-HA mAb (clone 3F10, Roche), 0.2 µl of 0.5 mg/ml biotinylated protein L (Pierce), 1 µl of biotinylated 1 mg/ml β-galactosidase or 0.1 µl of 5 mg/ml biotinylated BSA (Sigma) respectively in 50 µl aliquots of PBS and incubating for 3 hours at room temperature. The monoclonal high-affinity α-HA mAb 3F10 recognises the C-terminal HA tag, β-galactosidase and protein L can be expected to interact with the $V_\kappa$(E5) light chain domain, while BSA serves as the negative control. At the end of the incubation the coating solution is removed and the first blocking solution consisting of 150 µl of 10 ng/ml biotinylated BSA (Sigma) in PBS is added to the wells and incubated for 15 minutes. At the end of the incubation the wells are washed three times with 150 µl of PBS and blocked additionally for 30 min at room temperature with buffer C+.
(§2) 25 µl S30 in vitro translation reactions (EcoPro T7, Novagen) are assembled according to the manufacturer's instructions and supplemented with 1.5 µl of 1.7 mM PCR-amplified template in 0.1 mg/ml RNA and 0.75 µl of 100 mM oxidized glutathione. […]
(§3) The PCR amplification products are analysed by 1% agarose gel electrophoresis in TAE in the presence of ethidium bromide and imaged using GeneGeius Bio Imaging System (Syngene). […]

The target in data set [5] is T2, scArc-Vk(E5)-HA. Briefly: plateau at 3-4 operators. Particulars: tags: C-terminal Vk(E5) dAb fusion, chain copies: 2 scArc per operator (stated). The method, then:
as §1, §2, §3

B1: genetic element with two Arc operators (dsDNA)
DNA 1: GATCTATGATAGAAGCACTCTACTATACTCATCACGAAACGGAGGATCTATGATAGAAGCACTCTACTAT
DNA 2: ATAGTAGAGTGCTTCTATCATAGATCCTCCGTTTCGTGATGAGTATAGTAGAGTGCTTCTATCATAGATC
In the case of B1, the binding result (with Vk(E5)-scArc-HA [1]; in the data set with scArc-Vk(E5)-HA [2]; in data set [3]) was “binds” throughout.

B2: genetic element with four Arc operators (dsDNA)
DNA 1: GATCTATGATAGAAGCACTCTACTATACTCATCACGAAACGGAGGATCTATGATAGAAGCACTCTACTATACTCATCACGAAACGGAGGATCTATGATAGAAGCACTCTACTATACTCATCACGAAACGGAGGATCTATGATAGAAGCACTCTACTAT
DNA 2: ATAGTAGAGTGCTTCTATCATAGATCCTCCGTTTCGTGATGAGTATAGTAGAGTGCTTCTATCATAGATCCTCCGTTTCGTGATGAGTATAGTAGAGTGCTTCTATCATAGATCCTCCGTTTCGTGATGAGTATAGTAGAGTGCTTCTATCATAGATC
Turning to B2, in data set [3], the binding result is “binds”.

B3: genetic element with three Arc operators (dsDNA)
DNA 1: GATCTATGATAGAAGCACTCTACTATACTCATCACGAAACGGAGGATCTATGATAGAAGCACTCTACTATACTCATCACGAAACGGAGGATCTATGATAGAAGCACTCTACTAT
DNA 2: ATAGTAGAGTGCTTCTATCATAGATCCTCCGTTTCGTGATGAGTATAGTAGAGTGCTTCTATCATAGATCCTCCGTTTCGTGATGAGTATAGTAGAGTGCTTCTATCATAGATC
For the molecule B3, the binding result (in data set [3]; in the data set with Vk(E5)-scArc-HA [4]; with scArc-Vk(E5)-HA [5]) was “binds” throughout.
